From the supplement of paper PMC11908140

B1: library; numbered along this chain (parent)
chain: MRKPRAAVGSGHRKQAASQEGRQKHAKNNSQAKPSACDGLARQPEEVVLQASVSSYHLFRDVAEVTAFRGSLLSWYDQEKRDLPWRRRAEDEMDLDRRAYAVWVSEVMLQQTQVATVINYYTGWMQKWPTLQDLASASLEEVNQLWAGLGYYSRGRRLQEGARKVVEELGGHMPRTAETLQQLLPGVGRYTAGAIASIAFGQATGVVDGNVARVLCRVRAIGADPSSTLVSQQLWGLAQQLVDPARPGDFNQAAMELGATVCTPQRPLCSQCPVESLCRARQRVEQEQLLASGSLSGSPDVEECAPNTGQCHLCLPPSEPWDQTLGVVNFPRKASRKPPREESSATCVLEQPGALGAQILLVQRPNSGLLAGLWEFPSVTWEPSEQLQRKALLQELQRWAGPLPATHLRHLGEVVHTFSHIKLTYQVYGLALEGQTPVTTVPPGARWLTQEEFHTAAVSTAMKKVFRVYQGQQPGTCMGSKRSQVSSPCSRKKPRMGQQVLDNFFRSHISTDAHSLNSAAQ

Variants of: B1
Assay: 8OG:A repair function score (normalized; synonymous = 0, nonsense = -1) (normalized log-likelihood score); higher = more repair activity (WT-like)
Conditions: with 8OG:A DNA repair reporter (GFP) in HEK-293 MUTYH KO cells
In short: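 Per-tile Rosace fitness scores were converted to a normalized repair function score anchored on synonymous and nonsense distributions. That scale puts synonymous medians at 0 and nonsense medians at -1. Variants with starting counts under 300 counts per million were discarded. Input came from sorting viable mCherry+ MUTYH knockout HEK-293 cells, carrying lentiviral MUTYH cDNA NNN codon-scan libraries in 10 pg/ml doxycycline and an 8OG:A GFP repair reporter, into GFP+ and GFP− bins at 72 h, three replicates per tile, followed by tile amplicon sequencing.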
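Further: cells sorted at 72 h after reporter transfection.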

Variant	8OG:A repair function score
MRKPRAAVGSGHRKQAASQEGRQKHAKNNSQAKPSACDGLARQPEEVVLQASVSSYHLFRDVAEVTAFRGSLLSWYDQEKRDLPWRRREEDEMDLDRRAYAVWVSEVMLQQTQVATVINYYTGWMQKWPTLQDLASASLEEVNQLWAGLGYYSRGRRLQEGARKVVEELGGHMPRTAETLQQLLPGVGRYTAGAIASIAFGQATGVVDGNVARVLCRVRAIGADPSSTLVSQQLWGLAQQLVDPARPGDFNQAAMELGATVCTPQRPLCSQCPVESLCRARQRVEQEQLLASGSLSGSPDVEECAPNTGQCHLCLPPSEPWDQTLGVVNFPRKASRKPPREESSATCVLEQPGALGAQILLVQRPNSGLLAGLWEFPSVTWEPSEQLQRKALLQELQRWAGPLPATHLRHLGEVVHTFSHIKLTYQVYGLALEGQTPVTTVPPGARWLTQEEFHTAAVSTAMKKVFRVYQGQQPGTCMGSKRSQVSSPCSRKKPRMGQQVLDNFFRSHISTDAHSLNSAAQ [A89E]	-0.00662
MRKPRAAVGSGHRKQAASQEGRQKHAKNNSQAKPSACDGLARQPEEVVLQASVSSYHLFRDVAEVTAFRGSLLSWYDQEKRDLPWRRRAEDEMDLDRRAYAVWVSEVMLQQTQVATVINYYTGWMQKWPTLQDLASASLEEVNQLWAGLGYYSRGRRLQEGARKVVEELGGHMPRTAETLQQLLPGVGRYTAGAIASIAFGQATGVVDGNVARVLCRVRAIGADPSSTLVSQQLWGLAQQLVDPARPGDFNQAAMELGATVCTPQRPLCSQCPVESLCRARQRVEQEQLLASGSLSGSPDVEECAPNTGQCHLCLPPSEPWDQTLGVVNFPRKASRKPPREESSATCVLEQPGALGAQILLVQRPNSGLLAGLWEFPSVTWEPSEQLQRKALLQELQRWAGPLPATHLRHLGEVVHTFSHIKLTYQVYGLALEGQTPVTTVPPGARWLTQEEFHTAAVSTAMKKVFRVYQGQQPGTCMGSKRSQVSSPCSRKKPRMGYQVLDNFFRSHISTDAHSLNSAAQ [Q498Y]	0.0174
MRKPRAAVGSGHRKQAASQEGRQKHAKNNSQAKPSACDGLARQPEEVVLQASVSSYHLFRDVAEVTAFRGSLLSWYDQEKRDLPWRRRAEDEMDLDRRAYAVWVSEVMLQQTQVATVINYYTGWMQKWPTLQDLASASLEEVNQLWAGLGYYSRGRRLQEGARKVVEELGGHMPRTAETLQQLLPGVGRYTAGAIASIAFGQATGVVDGNVARVLCRVRAIGADPSSTLVSQQLWGLAQQLVDPARPGDFNQAAMELGATVCTPQRPLCSQCPVESLCRARQRVEQEQLLASGSLSGSPDVEECAPNTGQCHLCLYPSEPWDQTLGVVNFPRKASRKPPREESSATCVLEQPGALGAQILLVQRPNSGLLAGLWEFPSVTWEPSEQLQRKALLQELQRWAGPLPATHLRHLGEVVHTFSHIKLTYQVYGLALEGQTPVTTVPPGARWLTQEEFHTAAVSTAMKKVFRVYQGQQPGTCMGSKRSQVSSPCSRKKPRMGQQVLDNFFRSHISTDAHSLNSAAQ [P316Y]	-0.161
MRKPRAAVGSGHRKQAASQEGRQKHAKNNSQAKPSACDGLARQPEEVVLQASVSSYHLFRDVAEVTAFRGSLLSWYDQEKRDLPWRRRAEDEMDLDRRAYAVWVSEVMLQQTQVATVINYYTGWMQKWPTLQDLASASLEEVNQLWAGLGYYSRGRRLQEGARKVVEELGGHMPRTAETLQQLLPGVGRYTAGAIASIAFGQATGVVDGNVARVLCRVRAIGADPSSTLVSQQLWGLAQQLVDPARPGDFNQAAMELGATVCTPQRPLCSQCPVESLCRARQRVEQEQLLASGSLSGSPDVEECAPNTGQCHLCLPPSEPWDQTLGVVNFPRKASRKPPREESSATCVLEQPGALGAQILLVQRVNSGLLAGLWEFPSVTWEPSEQLQRKALLQELQRWAGPLPATHLRHLGEVVHTFSHIKLTYQVYGLALEGQTPVTTVPPGARWLTQEEFHTAAVSTAMKKVFRVYQGQQPGTCMGSKRSQVSSPCSRKKPRMGQQVLDNFFRSHISTDAHSLNSAAQ [P365V]	0.0242
MRKPRAAVGSGHRKQAASQEGRQKHAKNNSQAKPSACDGLARQPEEVVLQASVSSYHLFRDVAEVTAFRGSLLSWYDQEKRDLPWRRRAEDEMDLDRRAYAVWVSEVMLQQTQVATVINYYTGWMQKWPTLQDLASASLEEVNQLWAGLGYYSRGRRLQEGARKVVEELGGHMPRTAETLQQLLPGVGRYTAGAIASIAFGQATGVVDGNVARVLCRVRAIGADPSSTLVSQQLWGLAQQLVDPARPGDFNQAAMELGATVCTPQRPLCSQCPVESLCRARQRVEQEQLLASGSLSGSPDVEECAPNTGQCHLCLPPSEPWDQTLGVVNFPRKASRKPPREESSATCVLEQPGALGAQILLVQRPNSGLLAGLWEFPSVTWEPSEQLQRKALLQELQRTAGPLPATHLRHLGEVVHTFSHIKLTYQVYGLALEGQTPVTTVPPGARWLTQEEFHTAAVSTAMKKVFRVYQGQQPGTCMGSKRSQVSSPCSRKKPRMGQQVLDNFFRSHISTDAHSLNSAAQ [W399T]	-0.296
MRKPRAAVGSGHRKQAASQEGRQKHAKNNSQAKPSACDGLARQPEEVVLQASVSSYHLFRDVAEVTAFRGSLLSWYDQEKRDLPWRRRAEDEMDLDRRAYAVWVSEVMLQQTQVATVINYYTGWMQKWPTLQDLASASLEEVNQLWAGLGYVSRGRRLQEGARKVVEELGGHMPRTAETLQQLLPGVGRYTAGAIASIAFGQATGVVDGNVARVLCRVRAIGADPSSTLVSQQLWGLAQQLVDPARPGDFNQAAMELGATVCTPQRPLCSQCPVESLCRARQRVEQEQLLASGSLSGSPDVEECAPNTGQCHLCLPPSEPWDQTLGVVNFPRKASRKPPREESSATCVLEQPGALGAQILLVQRPNSGLLAGLWEFPSVTWEPSEQLQRKALLQELQRWAGPLPATHLRHLGEVVHTFSHIKLTYQVYGLALEGQTPVTTVPPGARWLTQEEFHTAAVSTAMKKVFRVYQGQQPGTCMGSKRSQVSSPCSRKKPRMGQQVLDNFFRSHISTDAHSLNSAAQ [Y152V]	-0.573
MRKPRAAVGSGHRKQAASQEGRQKHAKNNSQAKPSACDGLARQPEEVVLQASVSSYHLFRDVAEVTAFRGSLLSWYDQEKRDLPWRRRAEDEMDLDRRAYAVWVSEVMLQQTQVATVINYYTGWMQKWPTLQDLASASLEEVNQLWAGLGYYSRGRRLQEGARKVVEELGGHMPRTAETLQQLLPGVGRYTAGAIASIAFGQATGVVDGNVARVLCRVRAIGADPSSTLVSQQLWGLAQWLVDPARPGDFNQAAMELGATVCTPQRPLCSQCPVESLCRARQRVEQEQLLASGSLSGSPDVEECAPNTGQCHLCLPPSEPWDQTLGVVNFPRKASRKPPREESSATCVLEQPGALGAQILLVQRPNSGLLAGLWEFPSVTWEPSEQLQRKALLQELQRWAGPLPATHLRHLGEVVHTFSHIKLTYQVYGLALEGQTPVTTVPPGARWLTQEEFHTAAVSTAMKKVFRVYQGQQPGTCMGSKRSQVSSPCSRKKPRMGQQVLDNFFRSHISTDAHSLNSAAQ [Q240W]	-1
MRKPRAAVGSGHRKQAASQEGRQKHAKNNSQAKPSACDGLARQPEEVVLQASVSSYHLFRDVAEVTAFRGSLLSWYDQEKRDLPWRRRAEDEMDLDRRAYAVWVSEVMLQQTQVATVINYYTGWMQKWPTLQDLASASLEEVNQLWAGLGYYSRGRRLQEGARKVVEELGGHMPRTAETLQQLLPGVGRYTAGAIASIAFGQATGVVDGNVARVLCRVRAIGEDPSSTLVSQQLWGLAQQLVDPARPGDFNQAAMELGATVCTPQRPLCSQCPVESLCRARQRVEQEQLLASGSLSGSPDVEECAPNTGQCHLCLPPSEPWDQTLGVVNFPRKASRKPPREESSATCVLEQPGALGAQILLVQRPNSGLLAGLWEFPSVTWEPSEQLQRKALLQELQRWAGPLPATHLRHLGEVVHTFSHIKLTYQVYGLALEGQTPVTTVPPGARWLTQEEFHTAAVSTAMKKVFRVYQGQQPGTCMGSKRSQVSSPCSRKKPRMGQQVLDNFFRSHISTDAHSLNSAAQ [A223E]	-0.219
MRKPRAAVGSGHRKQAASQEGRQKHAKNNSQAKPSACDGLARQPEEVVLQASVSSYHLFRDVAEVTAFRGSLLSWYDQEKRDLPWRRRAEDEMDLDRRAYAVWVSEVMLQQTQVATVINYYTGWMQKWPTLQDLASASLEEVNQLWAGLGYYSRGRRLQEGARKVVEELGGHMPRTAETLQQLLPGVGRYTAGAIASIAFGQATGVVDGNVARVLCRVRAIGADPSDTLVSQQLWGLAQQLVDPARPGDFNQAAMELGATVCTPQRPLCSQCPVESLCRARQRVEQEQLLASGSLSGSPDVEECAPNTGQCHLCLPPSEPWDQTLGVVNFPRKASRKPPREESSATCVLEQPGALGAQILLVQRPNSGLLAGLWEFPSVTWEPSEQLQRKALLQELQRWAGPLPATHLRHLGEVVHTFSHIKLTYQVYGLALEGQTPVTTVPPGARWLTQEEFHTAAVSTAMKKVFRVYQGQQPGTCMGSKRSQVSSPCSRKKPRMGQQVLDNFFRSHISTDAHSLNSAAQ [S227D]	0.49
MRKPRAAVGSGHRKQAASQEGRQKHAKNNSQAKPSACDGLARQPEEVVLQASVSSYHLFRDVAEVTAFRGSLLSWYDQEKRDLPWRRRAEDEMDLDRRAYAVWVSEVMLQQTQVATVINYYTGWMQKWPTLQDLASASLEEVNQLWAGLGYYSRGRRLQEGARKVVEELGGHMPRTAETLQQLLPGVGRYTAGAIASIAFGQATGVVDGNVARVLCRVRAIGADPSSTLVSQQLWGLAQQLVDPARPGDFNQAAMELGATVCTPQRPLCSQCPVESLCRARQRVEQEQLLASGSLSGSPDVEECAPNTGQCHLCLPPSEPWDQTLGVVNFPRKASRKPPREESSATCVLEQPGALGAQILLVQRPNSGLLAGLWEFPSVTWEPSEQLQRKALLQELQRWAGPLPATHLRHLGEVVHTFSHIKLTYQVYGLALEGQTPVTTVPPGARWLTQEEFHTAAVSTAMYKVFRVYQGQQPGTCMGSKRSQVSSPCSRKKPRMGQQVLDNFFRSHISTDAHSLNSAAQ [K463Y]	-0.191
MRKPRAAVGSGHRKQAASQEGRQKHAKNNSQAKPSACDGLARQPEEVVLQASVSSYHLFRDVAEVTAFRGSLLSWYDQEKRDLPWRRRAEDEMDLDRRAYAVWVSEVMLQQTQVATVINYYTGWMQKWPTLQDLASASLEEVNQLWAGLGYYSRGRRLQEGARKVVEELGGHMPRTAETLQQLLPGVGRYTAGAIASIAFGQATGVVDGNVARVLCRVRAIGADPSSTLVSQQLWGLAQQLVDPARPGDFNQAKMELGATVCTPQRPLCSQCPVESLCRARQRVEQEQLLASGSLSGSPDVEECAPNTGQCHLCLPPSEPWDQTLGVVNFPRKASRKPPREESSATCVLEQPGALGAQILLVQRPNSGLLAGLWEFPSVTWEPSEQLQRKALLQELQRWAGPLPATHLRHLGEVVHTFSHIKLTYQVYGLALEGQTPVTTVPPGARWLTQEEFHTAAVSTAMKKVFRVYQGQQPGTCMGSKRSQVSSPCSRKKPRMGQQVLDNFFRSHISTDAHSLNSAAQ [A254K]	-0.725
MRKPRAAVGSGHRKQAASQEGRQKHAKNNSQAKPSACDGLARQPEEVVLQASVSSYHLFRDVAEVTAFRGSLLSWYDQEKRDLPWRRRAEDEMDLDRRAYAVWVSEVMLQQTQVATVINYYTGWMQKWPTLQDLASASLEEVNQLWAGLGYYSRGRRLQEGARKVVEELGGHMPRTAETLQQLLPGVGRYTAGAIASIAFGQATGVVDGNVARVLCRVRAIGADPSSTLVSQQLWGLAQQLVDPARPGDFNQAAMELGATVCTPQRPLCSQCPVESLCRARQRVEQEQLLASGSLSGSPDVEECAPNTGQCHLCLPPSEPWDQTLGVVNFPRKASRKPPREESSATCVLEQPGALGAQILLVQRPNSGLLAGLWEFPSVTWEPSEQLQRKALLQELQRWAGPLEATHLRHLGEVVHTFSHIKLTYQVYGLALEGQTPVTTVPPGARWLTQEEFHTAAVSTAMKKVFRVYQGQQPGTCMGSKRSQVSSPCSRKKPRMGQQVLDNFFRSHISTDAHSLNSAAQ [P404E]	0.341
